Reference: doi:10.1101/2025.02.05.636571

System: P41676
Experiment: SEC

**Q.** Which “percent in the monomer peak” value does the source give for “PK2 C181S/C211S (full-length PK2 from the baculovirus AcMNPV, stable mutant, C-terminal His-tag)” here?
**A.** Its value is “monomer (62%)”.
